# Test results reported in patent US11969458B2, “Formula of neuregulin preparation” (Zensun (Shanghai) Science & Technology, Co., Ltd., priority 2014, dated 2024).
# B1: rhNRG-1: proteins or peptides which consist of amino acid sequence of SEQ ID NO: 2 (protein, listed as Homo sapiens)
# chain: SHLVKCAEKEKTFCVNGGECFMVKDLSNPSRYLCKCPNEFTGDRCQNYVMASFYKAEELYQ
# Assay: pH-stability profile of rhNRG-1 in pH 3 to 10 buffers and DI-water (RP-HPLC, SDS-PAGE)
# Assay type: physicochemical
# Conditions: for T90: time to degrade 10% of the initial concentration; for Rate of degradation: zero order, linear regression slope
# Experimental: 2.1 Develop a RP-HPLC Method to Determine the Purity of rhNRG-1 Drug Substance.
# RhNRG-1, batch 201204001, which contains 1.24 mg/mL rhNRG-1, 20 mM phosphate buffer and 0.5M NaCl, pH 5.5 (“API”) was used for the preparation of standard solution for all HPLC analysis.
# In a 15 mL plastic tube, add the API and DI-water or a New Buffer. Mix into a solution containing 0.25 mg/mL rhNRG-1, 10 mM New Buffer, 4 mM phosphate (from the API) and 0.1 M NaCl (from the API).
# For 40° C., test by SDS-PAGE after 10 days. Destain I (45% water, 45% methanol, 10% acetic acid, freshly made); 0.1% Coomasic Blue stain; The running gel (12%-15%) serves to separate individual polypeptides into discrete bands.
# For 40° C., remove 150 μL and test by HPLC after 28.5, 49 and 77 hr.
# For each Cone-vs-time profile, a linear regression analysis was performed and the slope of the regression equation was used to represent the rate of degradation in mg/mL/hr assuming zero order kinetics.
# At each pH (3 to 8) and temperature, the estimated degradation rate and T90 (time to degrade 10% of the initial concentration or 0.025 mg/mL) are provided as follow (Table 10): […]
# [1] = pH 5.63 (No New Buffer added), 40° C.
# [2] = pH 5.63 (No New Buffer added), 60° C.
molecule,measurement,setting,value
B1,T90 at the lower pH relative to the one in its original buffer,"lower pH (3.2) vs original buffer (pH 5.5, as is)",about 20 ×
same,T90 at the lower pH relative to the one at pH 4.2,lower pH (3.2) vs pH 4.2,about 2 ×
same,pH of the best stability observed,"pH 3 to 8 study, lowest pH",3.2
same,stability in solution depending on pH,pH 3 to 10,more stable in acid solution (PH 3.0 to 7.0) than in basic solution (PH 8.0 to 10.0)
same,% over initial conc.,"pH 3.19 (Sodium phosphate), 40° C., 28.5 hr",97%
same,% over initial conc.,"pH 3.19 (Sodium phosphate), 40° C., 49 hr",97%
same,% over initial conc.,"pH 3.19 (Sodium phosphate), 40° C., 77 hr",96%
same,% over initial conc.,"pH 3.19 (Sodium phosphate), 60° C., 7.5 hr",98%
same,% over initial conc.,"pH 3.19 (Sodium phosphate), 60° C., 24 hr",93%
same,% over initial conc.,"pH 3.19 (Sodium phosphate), 60° C., 48 hr",89%
same,% over initial conc.,"pH 3.19 (Sodium phosphate), 60° C., 65 hr",82%
same,% over initial conc.,"pH 3.19 (Sodium phosphate), 60° C., 77 hr",72%
same,Initial Conc,pH 3.19 (Sodium phosphate),0.241 mg/mL
same,T90,"pH 3.19, 40° C.",10.4 days
same,Rate of degradation,"pH 3.19, 40° C.",0.0001 mg/mL/h
same,T90,"pH 3.19, 60° C.",1.7 days
same,Rate of degradation,"pH 3.19, 60° C.",0.0006 mg/mL/h
same,% over initial conc.,"pH 4.17 (Sodium acetate), 40° C., 28.5 hr",97%
same,% over initial conc.,"pH 4.17 (Sodium acetate), 40° C., 49 hr",97%
same,% over initial conc.,"pH 4.17 (Sodium acetate), 40° C., 77 hr",93%
same,% over initial conc.,"pH 4.17 (Sodium acetate), 60° C., 7.5 hr",99%
same,% over initial conc.,"pH 4.17 (Sodium acetate), 60° C., 24 hr",93%
same,% over initial conc.,"pH 4.17 (Sodium acetate), 60° C., 48 hr",91%
same,% over initial conc.,"pH 4.17 (Sodium acetate), 60° C., 65 hr",84%
same,% over initial conc.,"pH 4.17 (Sodium acetate), 60° C., 77 hr",78%
same,Initial Conc,pH 4.17 (Sodium acetate),0.247 mg/mL
same,T90,"pH 4.17, 40° C.",5.2 days
same,Rate of degradation,"pH 4.17, 40° C.",0.0002 mg/mL/h
same,T90,"pH 4.17, 60° C.",1.7 days
same,Rate of degradation,"pH 4.17, 60° C.",0.0006 mg/mL/h
same,% over initial conc.,"pH 5.08 (Sodium acetate), 40° C., 28.5 hr",94%
same,% over initial conc.,"pH 5.08 (Sodium acetate), 40° C., 49 hr",94%
same,% over initial conc.,"pH 5.08 (Sodium acetate), 40° C., 77 hr",86%
same,% over initial conc.,"pH 5.08 (Sodium acetate), 60° C., 7.5 hr",98%
same,% over initial conc.,"pH 5.08 (Sodium acetate), 60° C., 24 hr",92%
same,% over initial conc.,"pH 5.08 (Sodium acetate), 60° C., 48 hr",93%
same,% over initial conc.,"pH 5.08 (Sodium acetate), 60° C., 65 hr",82%
same,% over initial conc.,"pH 5.08 (Sodium acetate), 60° C., 77 hr",82%
same,Initial Conc,pH 5.08 (Sodium acetate),0.242 mg/mL
same,T90,"pH 5.08, 40° C.",2.6 days
same,Rate of degradation,"pH 5.08, 40° C.",0.0004 mg/mL/h
same,T90,"pH 5.08, 60° C.",1.7 days
same,Rate of degradation,"pH 5.08, 60° C.",0.0006 mg/mL/h
same,% over initial conc.,"pH 5.47 (Histidine), 60° C., 7.5 hr",95%
same,% over initial conc.,"pH 5.47 (Histidine), 60° C., 24 hr",92%
same,% over initial conc.,"pH 5.47 (Histidine), 60° C., 48 hr",86%
same,% over initial conc.,"pH 5.47 (Histidine), 60° C., 65 hr",79%
same,% over initial conc.,"pH 5.47 (Histidine), 60° C., 77 hr",79%
same,Initial Conc,pH 5.47 (Histidine),0.248 mg/mL
same,T90,"pH 5.47, 60° C.",1.5 days
same,Rate of degradation,"pH 5.47, 60° C.",0.0007 mg/mL/h
same,% over initial conc.,"pH 5.63 (No New Buffer added), 40° C., 28.5 hr",92%
same,% over initial conc.,"pH 5.63 (No New Buffer added), 40° C., 49 hr",91%
same,% over initial conc.,"pH 5.63 (No New Buffer added), 40° C., 77 hr",38%
same,T90,[1],0.5 days
same,Rate of degradation,[1],0.0019 mg/mL/h
same,% over initial conc.,"pH 5.63 (No New Buffer added), 60° C., 7.5 hr",95%
same,% over initial conc.,"pH 5.63 (No New Buffer added), 60° C., 24 hr",84%
same,% over initial conc.,"pH 5.63 (No New Buffer added), 60° C., 48 hr",82%
same,% over initial conc.,"pH 5.63 (No New Buffer added), 60° C., 65 hr",69%
same,% over initial conc.,"pH 5.63 (No New Buffer added), 60° C., 77 hr",64%
same,T90,[2],1.0 days
same,Rate of degradation,[2],0.001 mg/mL/h
same,Initial Conc,pH 5.63 (No New Buffer added),0.251 mg/mL
same,% over initial conc.,"pH 6.02 (Sodium citrate), 40° C., 28.5 hr",94%
same,% over initial conc.,"pH 6.02 (Sodium citrate), 40° C., 49 hr",94%
same,% over initial conc.,"pH 6.02 (Sodium citrate), 40° C., 77 hr",86%
same,% over initial conc.,"pH 6.02 (Sodium citrate), 60° C., 7.5 hr",95%
same,% over initial conc.,"pH 6.02 (Sodium citrate), 60° C., 24 hr",88%
same,% over initial conc.,"pH 6.02 (Sodium citrate), 60° C., 48 hr",85%
same,% over initial conc.,"pH 6.02 (Sodium citrate), 60° C., 65 hr",72%
same,% over initial conc.,"pH 6.02 (Sodium citrate), 60° C., 77 hr",72%
same,Initial Conc,pH 6.02 (Sodium citrate),0.251 mg/mL
same,T90,"pH 6.02, 40° C.",2.6 days
same,Rate of degradation,"pH 6.02, 40° C.",0.0004 mg/mL/h
same,T90,"pH 6.02, 60° C.",1.2 days
same,Rate of degradation,"pH 6.02, 60° C.",0.0009 mg/mL/h
same,% over initial conc.,"pH 7.00 (Sodium phosphate), 40° C., 28.5 hr",92%
same,% over initial conc.,"pH 7.00 (Sodium phosphate), 40° C., 49 hr",87%
same,% over initial conc.,"pH 7.00 (Sodium phosphate), 40° C., 77 hr",82%
same,% over initial conc.,"pH 7.00 (Sodium phosphate), 60° C., 7.5 hr",90%
same,% over initial conc.,"pH 7.00 (Sodium phosphate), 60° C., 24 hr",76%
same,% over initial conc.,"pH 7.00 (Sodium phosphate), 60° C., 48 hr",65%
same,Initial Conc,pH 7.00 (Sodium phosphate),0.251 mg/mL
same,T90,"pH 7.00, 40° C.",1.7 days
same,Rate of degradation,"pH 7.00, 40° C.",0.0006 mg/mL/h
same,T90,"pH 7.00, 60° C.",0.7 days
same,Rate of degradation,"pH 7.00, 60° C.",0.0015 mg/mL/h
same,% over initial conc.,"pH 8.07 (Sodium bicarbonate), 40° C., 28.5 hr",89%
same,% over initial conc.,"pH 8.07 (Sodium bicarbonate), 40° C., 49 hr",83%
same,% over initial conc.,"pH 8.07 (Sodium bicarbonate), 40° C., 77 hr",68%
same,% over initial conc.,"pH 8.07 (Sodium bicarbonate), 60° C., 7.5 hr",68%
same,% over initial conc.,"pH 8.07 (Sodium bicarbonate), 60° C., 24 hr",4%
same,Initial Conc,pH 8.07 (Sodium bicarbonate),0.253 mg/mL
same,T90,"pH 8.07, 40° C.",1.0 days
same,Rate of degradation,"pH 8.07, 40° C.",0.001 mg/mL/h
same,T90,"pH 8.07, 60° C.",0.2 days
same,Rate of degradation,"pH 8.07, 60° C.",0.0061 mg/mL/h
